Experiments:
[1] = biological target: human MUC1 on cells (DA3-TM transfectants and human cancer cell lines SKOV3, COLO357, HT29 and others) (human) (UniProt P15941); experiment: flow cytometry on DA3-TM cells; table row 5 of 5 from the top, concentration not printed in this figure
[2] = biological target: human MUC1 on cells (DA3-TM transfectants and human cancer cell lines SKOV3, COLO357, HT29 and others) (human) (UniProt P15941); experiment: flow cytometry on DA3-TM cells; table row 3 of 5 from the top, concentration not printed in this figure
[3] = biological target: human MUC1 on cells (DA3-TM transfectants and human cancer cell lines SKOV3, COLO357, HT29 and others) (human) (UniProt P15941); experiment: flow cytometry on DA3-TM cells; table row 2 of 5 from the top, concentration not printed in this figure
[4] = biological target: human MUC1 on cells (DA3-TM transfectants and human cancer cell lines SKOV3, COLO357, HT29 and others) (human) (UniProt P15941); experiment: flow cytometry on DA3-TM cells; table row 4 of 5 from the top, concentration not printed in this figure

human MUC1 on cells (DA3-TM transfectants and human cancer cell lines SKOV3, COLO357, HT29 and others) (human), sequence (P15941 24-1255 limits assumed): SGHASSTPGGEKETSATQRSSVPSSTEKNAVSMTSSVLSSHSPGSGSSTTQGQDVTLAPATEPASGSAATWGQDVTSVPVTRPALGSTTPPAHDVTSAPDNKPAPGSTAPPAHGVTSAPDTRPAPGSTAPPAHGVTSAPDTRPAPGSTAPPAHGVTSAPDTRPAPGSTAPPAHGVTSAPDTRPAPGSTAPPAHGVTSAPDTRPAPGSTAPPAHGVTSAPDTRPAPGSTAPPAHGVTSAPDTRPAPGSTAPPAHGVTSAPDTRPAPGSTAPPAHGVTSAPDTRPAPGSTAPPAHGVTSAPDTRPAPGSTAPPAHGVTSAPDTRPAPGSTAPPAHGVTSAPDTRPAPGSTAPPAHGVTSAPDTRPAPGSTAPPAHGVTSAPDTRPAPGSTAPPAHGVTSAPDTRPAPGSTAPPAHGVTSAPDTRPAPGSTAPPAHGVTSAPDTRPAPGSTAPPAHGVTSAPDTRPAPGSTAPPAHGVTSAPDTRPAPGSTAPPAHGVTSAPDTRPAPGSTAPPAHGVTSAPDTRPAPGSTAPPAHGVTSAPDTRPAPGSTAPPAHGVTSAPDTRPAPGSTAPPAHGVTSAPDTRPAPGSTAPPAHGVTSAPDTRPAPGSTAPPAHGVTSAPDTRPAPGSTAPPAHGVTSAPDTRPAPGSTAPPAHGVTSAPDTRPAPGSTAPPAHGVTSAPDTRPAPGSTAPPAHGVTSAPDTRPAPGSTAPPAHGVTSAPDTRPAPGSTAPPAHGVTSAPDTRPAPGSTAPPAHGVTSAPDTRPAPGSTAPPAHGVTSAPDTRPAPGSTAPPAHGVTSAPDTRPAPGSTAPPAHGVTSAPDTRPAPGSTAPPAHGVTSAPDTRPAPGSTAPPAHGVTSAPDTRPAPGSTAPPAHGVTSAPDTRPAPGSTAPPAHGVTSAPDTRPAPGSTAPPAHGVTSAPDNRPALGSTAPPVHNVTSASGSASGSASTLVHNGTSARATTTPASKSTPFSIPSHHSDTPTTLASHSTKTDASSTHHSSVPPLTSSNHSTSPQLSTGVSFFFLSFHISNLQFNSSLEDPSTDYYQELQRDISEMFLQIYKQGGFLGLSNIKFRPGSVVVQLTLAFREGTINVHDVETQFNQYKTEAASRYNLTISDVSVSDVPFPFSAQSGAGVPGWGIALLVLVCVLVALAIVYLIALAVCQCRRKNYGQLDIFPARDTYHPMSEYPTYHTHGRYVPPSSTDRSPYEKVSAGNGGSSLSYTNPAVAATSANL

B1: Hu-5F3 (HM1 LM2) (antibody, V domains shown)
VH: EIQLVQSGAEVKKPGSSVKVSCKVTGHSITRGSSWHWMRQAPGQGLEWIGYIHYGGGTSYNPSLKSRATLTVDTSTNTAYMELSSLRSEDTAFYFCARYSYDITYRWFFDVWGQGTLVTVSS
VL: DIQMTQSPSTLSASVGDRVTITCRASQNIGTSIHWYQQKPGKAPKLLIKRASESISGVPSRFSGSGSGTEFTLTISSLQPDDFATYYCQQNNNWPLTFGQGTKVEVK
Work on B1 yielded a Geometric Mean : FL6-A [1] of 35.9, a Geometric Mean : FL6-A [2] of 71.4 and a Geometric Mean : FL6-A [3] of 114. It also gave a Geometric Mean : FL6-A [4] of 45.3.

Reference: patent US20250041437A1, “HUMANIZED MUC1 ANTIBODY AND ANTIBODY DRUG CONJUGATE” (Sun Pharma Advanced Research Company Limited, priority 2023, published 2025)
